Target: Gal4-DBD/CREM (UniProt P04386)
Test: cell-based or functional assay

activity in yeast (β-galactosidase reporter), compared with ACT (fold (against ACT)): 2
Substance: ACT/Gal4-AD (from UniProt Q9WTX7 1-284)

— patent US6660841
